From US20230312702A1 (KINDRED BIOSCIENCES, published 2023)
Residue numbers refer to the chain shown, from its start. Several values for one entry are separate records, joined by “and”; a condition that tells them apart may be missing. Identical values can stand only once. One block for each binder: values may come before it.

Tests used:
[1] = biological target: equine IL31 fused to human Fc (equine; human); test: biolayer interferometry, biotinylated equine IL31 on the sensor, preliminary; biolayer interferometry, biotinylated equine IL31 on the sensor, preliminary; upper end of the range
Sequence of equine IL31 fused to human Fc (equine; human) (chain, as listed by the source limits assumed, form in doubt): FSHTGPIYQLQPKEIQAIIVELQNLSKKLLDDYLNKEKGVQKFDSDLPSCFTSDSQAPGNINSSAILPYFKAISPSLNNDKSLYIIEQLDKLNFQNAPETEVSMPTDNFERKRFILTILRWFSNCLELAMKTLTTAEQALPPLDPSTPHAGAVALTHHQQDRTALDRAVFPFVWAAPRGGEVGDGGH

GST_(A127-Q159) = biological target: T1, GST_(A127-Q159); test: immunoblot of GST-canine IL31 fusions expressed in E. coli, membrane probed with chimeric M14; anti-GST blot in Fig. 5B
T1 construct: also called 31.1KDa
T1 GST fusion protein: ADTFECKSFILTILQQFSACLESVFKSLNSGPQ
From the text: (§1) To identify the canine IL31 epitope recognized by M14, multiple GST canine IL31 fragment fusion molecules were generated and proteins were expressed intracellularly in E. coli. After the GST fusion proteins were transferred to a membrane, chimeric M14 was used to probe the membrane. A positive signal resulted when the IL31 fragment contained the epitope.

GST_(S98-S144) = biological target: T2, GST_(S98-S144); test: as above
T2 construct: also called 34.5KDa
T2 GST fusion protein: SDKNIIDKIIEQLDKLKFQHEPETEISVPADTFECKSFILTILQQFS
From the text: as §1

[2] = biological target: T3, Canine IL31 with C-terminal polyHis tag (canine, biotinylated at primary amine groups (NHS-LC-Biotin) or at glycan groups (Biotin-LC-Hydrazide)); test: biolayer interferometry (Octet), canine IL31 (amine-conjugated-biotin) on streptavidin tips, 2:1 fit
T3 construct: the protein was collected from the supernatant of 293 or CHO-S cells; also called biotinylated canine IL31; canine IL31 (amine-conjugated-biotin); not shown: C-terminal poly-His tag
T3 chain: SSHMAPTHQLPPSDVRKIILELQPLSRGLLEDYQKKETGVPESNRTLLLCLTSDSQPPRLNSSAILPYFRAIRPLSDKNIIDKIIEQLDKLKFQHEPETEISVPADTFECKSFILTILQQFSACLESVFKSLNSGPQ
Procedure: (§2) The binding analysis was performed using a biosensor Octet as follows. Briefly, canine IL31 was biotinylated at primary amine groups using EZ-Link™ NHS-LC-Biotin (Thermo Scientific, Catalog No. 21336) or at glycan groups using EZ-Link™ Biotin-LC-Hydrazide (ThermoFisher Scientific, Catalog No. 21340) according to the manufacturer's instructions. The free unreacted biotin was removed from biotinylated IL31 by extensive dialysis. Biotinylated canine IL31 was captured on streptavidin sensor tips. The association of four different concentrations (400, 200, 66.6, and 33 nM) of chimeric and caninized M14 antibody and human and canine IL31 (amine-conjugated-biotin) and the association of 100 nM of caninized M14 antibody and canine IL31 (glycan-conjugated-biotin) was monitored for ninety seconds. Dissociation was monitored for 600 seconds. A buffer only blank curve was subtracted to correct for any drift. The data were fit to a 2:1 binding model using ForteBio™ data analysis software to determine the kₒₙ, koff, and the Kd. The buffer for dilutions and all binding steps was: 20 mM phosphate, 150 mM NaCl, pH 7.2.
(§3) Canine IL31 with C-terminal polyHis tag was expressed and purified from CHO-S cells. Human IL31 was obtained from Sino Biological and Streptavidin biosensors was obtained from ForteBio (Cat. #18-509).

[3] = biological target: T3, Canine IL31 with C-terminal polyHis tag; test: biolayer interferometry (Octet), canine IL31 (glycan-conjugated-biotin) on streptavidin tips, 100 nM antibody
Procedure: as §2, §3

[4] = biological target: canine FcRn with a poly-His tag and canine B2M heterodimer complex (canine); test: SPR (Biacore T200) at pH 6.0, biotinylated FcRn/B2M immobilised, Fc as analyte
Sequence of canine FcRn with a poly-His tag and canine B2M heterodimer complex (canine) (chain, as listed by the source limits assumed, form in doubt, chain 1 of 2): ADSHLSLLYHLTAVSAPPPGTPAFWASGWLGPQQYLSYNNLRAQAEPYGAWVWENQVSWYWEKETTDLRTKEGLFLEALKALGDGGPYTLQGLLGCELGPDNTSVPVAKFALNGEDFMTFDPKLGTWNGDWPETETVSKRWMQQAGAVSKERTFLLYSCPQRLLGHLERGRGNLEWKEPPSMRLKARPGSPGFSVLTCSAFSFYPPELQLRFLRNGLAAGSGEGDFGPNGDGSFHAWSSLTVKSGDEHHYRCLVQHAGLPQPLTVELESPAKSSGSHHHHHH
Sequence of canine FcRn with a poly-His tag and canine B2M heterodimer complex (canine) (b2m, as listed by the source limits assumed, form in doubt, chain 2 of 2): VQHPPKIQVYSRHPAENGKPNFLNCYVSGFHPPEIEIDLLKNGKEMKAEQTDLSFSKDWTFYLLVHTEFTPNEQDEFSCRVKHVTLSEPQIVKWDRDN

Kd [1]: < 50 nM
B1: monoclonal antibody M14 (mouse antibody clone M14) (antibody, V domains shown)
VH: EVQLQESGPSLVKPSQTLSLTCSVTGDSITSGYWNWIRKFPGNKLEYMGYISYSGITDYNPSLKSRISITRDTSKNQYYLQLNSVTTEDTATYYCARYGNYGYAMDYWGQGTSVTVSS
VL: DIVLTQSPASLAVSLGQRATISCRASESVDTYGNSFMHWYQQKSGQSPKLLIYRASNLESGIPARFGGSGSRTDFTLTIDPVEADDVATYYCQQSYEDPWTFGGGTKLEIK

binding result (GST_(A127-Q159)): no binding | binding result (GST_(S98-S144)): no binding
B2: chimeric M14 (murine M14 VH and VL fused to canine IgG-B constant heavy chain and canine constant light chain) (antibody, V domains shown)
VH: B1 VH
VL: DIVLTQSPASLAVSLGQRATISCRASESVDTYGNSFMHWYQQKSGQSPKLLIYRASNLESGIPARFGGSGSRTDFTLTIDPVEADDVATYYCQQSYEDPWTFGGGTKLEIKR
notes: expressed in CHO cells, Protein A purified; also called chimeric M14 antibody

Kd [2]: < 0.01 nM | Kd [3]: < 1 pM | koff [3]: < 1e-07 s⁻¹
B3: caninized M14 IgG-B (antibody, V domains shown)
VH: B1 VH with Q5V, S15G, Q16G, T17S, S19R, S68T, T70S, S113L
VL: B2 VL with L4M, A12S, S44P, R72G, E83Q
notes: Caninized M14 on canine IgG-B with canine light chain constant region; also called caninized M14 antibody

koff [4]: 0.122 s⁻¹
B4: wild-type canine IgG-B Fc polypeptide (protein, not shown: small tags and cut ends)
chain: PAPEMLGGPSVFIFPPKPKDTLLIARTPEVTCVVVDLDPEDPEVQISWFVDGKQMQTAKTQPREEQFNGTYRVVSVLPIGHQDWLKGKQFTCKVNNKALPSPIERTISKARGQAHQPSVYVLPPSREELSKNTVSLTCLIKDFFPPDIDVEWQSNGQQEPESKYRTTPPQLDEDGSYFLYSKLSVDKSRWQRGDTFICAVMHEALHNHYTQESLSHSPGK

koff [4]: 0.126 s⁻¹
B5: variant canine IgG-B Fc polypeptide L(23)M (protein, not shown: small tags and cut ends)
chain: B4 chain with L23M

koff [4]: 0.0631 s⁻¹ and 0.0847 s⁻¹
B6: variant canine IgG-B Fc polypeptide L(23)F (protein, not shown: small tags and cut ends)
chain: B4 chain with L23F

koff [4]: 0.0138 s⁻¹
B7: variant canine IgG-B Fc polypeptide L(23)Y (protein, not shown: small tags and cut ends)
chain: B4 chain with L23Y

koff [4]: 0.241 s⁻¹
B8: variant canine IgG-B polypeptide L(23)S (protein, not shown: small tags and cut ends)
chain: B4 chain with L23S
